For assay [1], the target named is human C-reactive protein (human) (UniProt P02741). The experiment in a line: mass photometry; in ammonium acetate; decamer to pentamers.
For assay [2] the target is unchanged. The experiment in a line: native MS; 0.5, 1 and 7 uM, ammonium acetate; decamer to pentamers.
Assay [3] shares this target. In words: mass photometry; nanohole-PEG surface (10 ug cm^-2 of 100 nm SNPs), PBS pH 7.2, across different analyte concentrations (500 nM shown), at equilibrium; decamer to pentamers, KD = [monomer]^2/[dimer] with the pentamer as the monomer.

The term Kd denotes the constant that tells how readily two partners part at equilibrium. Broadly, the stoichiometry N is the number of molecules, sites or subunits per partner or assembly. “human C-reactive protein (from UniProt P02741 19-224) (natural protein)”: the figures for the Kd in assay [1], in assay [2] and in assay [3] were 3400 nM, 2460 nM and 2600 nM, respectively. In assay [3], the stoichiometry N came out at 10.

For the origin of these results see publication PMC11342371.
